According to patent US20250163168A1, “NOVEL ANTIBODIES AND ANTIBODY CONJUGATES FOR THE TREATMENT OF METABOLIC DISORDERS” (PFIZER INC., priority 2023, published 2025):

What was measured:
[1] = target: T1, Human GIPR ECD (Homo sapiens, UniProt P48546); assay: Kinetic evaluation of anti-GIPR antibody by surface plasmon resonance (SPR); set-up: made in house; conditions: SPR at 37° C., captured antibody, 1:1 binding model
T1 sequence (P48546 with tags, fused parts or gaps): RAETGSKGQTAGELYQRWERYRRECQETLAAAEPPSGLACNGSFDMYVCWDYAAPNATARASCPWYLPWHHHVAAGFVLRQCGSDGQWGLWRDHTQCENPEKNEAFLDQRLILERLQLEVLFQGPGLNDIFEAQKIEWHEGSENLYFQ
Procedure: Human GIPR ECD (amino acid sequence of SEQ ID NO: 33) was prepared. An anti-human Fc sensor chip was prepared by amine coupling of anti-human IgG antibody (catalog number BR-1008-39, Cytiva) to all flow cells of a carboxymethylated dextran coated sensor chip (CM5) (catalog number BR100530, Cytiva) according to the manufacturer's protocols. The flow cells were activated by injecting a 1:1 mixture of 400 mM 1-Ethyl-3-(3-dimethylaminopropyl) carbodiimide hydrochloride (EDC) and 100 mM N-hydroxysuccinimide (NHS) for 7 minutes at a flow rate of 10 μL/minute. Anti-human IgG antibody was diluted to ˜12.5 μg/mL in 10 mM sodium acetate pH 5.0 and injected over all flow cells for 7 minutes at 10 μL/minute. All flow cells were blocked with 1M ethanolamine-HCl (ETH) for 7 minutes at 10 μL/minute. Final immobilization levels of the capture antibody were approximately 12,000 resonance units (RU). […]
Flow cell 1 was used as a reference surface. […] Rate constants and affinities were determined by fitting the data to a 1:1 binding model in BIAcore™ Insight Evaluation software version 3.0.12 (GE Healthcare).
After antibody capture, dilutions of the human GIPR ECD proteins were flowed over the sensor chip surface and the association rate constant (ka), dissociation rate constant (kd), and KD values were determined for binding to human GIPR ECD (Table 5).

[2] = system: diet induced obese (DIO) male hGIPR mice; assay: Oral glucose tolerance test (OGTT) in DIO male hGIPR mice; format: in vivo, mouse; conditions: single dose 1 mpk, versus IgG (FIG. 5B)
From the text: To test the efficacy of anti-GIPR antibodies GIPR-0107 and GIPR-2767 in vivo, humanized mice expressing hGIPR were made in which human GIPR is expressed under the control of the endogenous mouse Gipr locus while knocking out the mouse Gipr gene. Human GIPR cDNA-SV40 pA was inserted in-frame with mouse Gipr at the end of exon 2 (1st coding exon) utilizing CRISPR/Cas9 technology. Insertion of human GIPR cDNA and disruption of mouse Gipr was validated by genotyping, and human GIPR mRNA expression was confirmed by quantitative PCR. These hGIPR mice were used to measure the in vivo efficacy of GIPR-0107 and GIPR-2767 using oral glucose tolerance test (OGTT) and weight gain prevention studies.
Mice were singly housed, maintained on a 12-hour light/12-hour dark cycle, and received food and wr ad libitum. Prior to the start of the study, mice were weighed and randomized into groups based on body weight. […] Before dosing, mice were bled vial tail snip to obtain a basal blood glucose reading by AlphaTRAK handheld glucometer, and at time 0, mice were dosed with 1.5 g/kg glucose by oral gavage. Blood glucose was measured by glucometer at 15 min, 30 min, 60 min, and 120 min after glucose administration. […] All residuals were evaluated for meeting the normality assumption with the Shapiro-Wilks Test and Q-Q Plots and the sphericity and homoscedasticity assumption by the residual plots and Bartlett's test. […]

2G10: fully human monoclonal anti-GIPR antagonist antibody portion of AMG 133 (maridebart cafraglutide); benchmark antibody [reference compound]
Kd [1]: 0.0192 µM
baseline glucose adjusted AUC in OGTT [2]: not significantly different than IgG
